The results in this text go back to publication PMC5636754, “Structural and biochemical characterization of DAXX-ATRX interaction” (Protein & Cell, 2017).

The chains are these.
B1: ATRX_(1,265–1,285), α-helix frame only (αDID), wild type peptide [human] / DAXX helical bundle (DHB) domain of death domain-associated protein (DAXX), aa 55-144 [not stated] (parent complex)
chain 1: NDPENRIAKKMLLEEIKANLS
chain 2: GKKCYKLENEKLFEEFLELCKMQTADHPEVVPFLYNRQQRAHSLFLASAEFCNILSRVLSRARSRPAKLYVYINELCTVLKAHSAKKKLN

The variants in this assay derive from B1. The assay can be described thus: ITC. Background: Isothermal titration calorimetry measures the heat released or taken up as one component is titrated into another.
In general, Kd refers to the constant that tells how readily two partners part at equilibrium. For chain 1 D2N, the Kd amounted to 7 µM.

Turning to chain 1 E4Q, the Kd amounted to 5.6 µM.

Consider chain 1 E15Q, for which the Kd is 3.2 µM.

For chain 1 K9A, the Kd is 2.3 µM.
